The results in this text go back to patent US20260055210A1.

The target of assay [1] is Flt3 receptor on OCI-AML5 cells (human) (UniProt P36888). Put plainly: cell-based or functional assay.
Assay [2] concerns the target human thrombopoietin receptor cMPL expressed on the surface of Freestyle HEK293 cells (human) (UniProt P40238). Put plainly: flow cytometry on human cMPL-expressing HEK293 cells, fluorescent anti-IgG1 secondary antibody. (In general: Flow cytometry measures light scatter and fluorescence of single cells or particles in a stream.)
Assay [3] deals with mouse thrombopoietin receptor cMPL expressed on the surface of Freestyle HEK293 cells (mouse) (UniProt Q08351). The assay is described as follows: flow cytometry on mouse cMPL-expressing HEK293 cells, fluorescent anti-IgG1 secondary antibody.
Assay [4] addresses cMPL/TPO receptor on M-07e cells (human) (UniProt P40238). The assay is described as follows: cell-based or functional assay.

“And” between values parts separate entries of the source, which are not always exact repeats. Equal values may be shown once.

Sequence of mouse thrombopoietin receptor cMPL expressed on the surface of Freestyle HEK293 cells (mouse) (Q08351 26-625): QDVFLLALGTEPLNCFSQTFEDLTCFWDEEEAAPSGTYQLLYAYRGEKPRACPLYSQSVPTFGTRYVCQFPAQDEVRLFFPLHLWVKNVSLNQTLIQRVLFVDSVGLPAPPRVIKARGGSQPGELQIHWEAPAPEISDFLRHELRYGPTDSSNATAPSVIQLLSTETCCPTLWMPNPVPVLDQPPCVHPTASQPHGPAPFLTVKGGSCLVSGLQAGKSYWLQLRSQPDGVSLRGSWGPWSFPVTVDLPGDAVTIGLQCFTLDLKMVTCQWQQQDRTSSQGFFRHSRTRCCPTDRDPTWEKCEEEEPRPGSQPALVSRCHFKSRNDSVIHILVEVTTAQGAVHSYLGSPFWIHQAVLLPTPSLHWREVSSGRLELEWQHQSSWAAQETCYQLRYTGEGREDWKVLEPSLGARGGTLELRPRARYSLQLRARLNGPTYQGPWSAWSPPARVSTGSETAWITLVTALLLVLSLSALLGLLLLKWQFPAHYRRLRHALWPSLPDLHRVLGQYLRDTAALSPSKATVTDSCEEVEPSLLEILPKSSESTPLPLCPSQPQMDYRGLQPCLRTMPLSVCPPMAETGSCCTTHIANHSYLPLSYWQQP
Sequence of Flt3 receptor on OCI-AML5 cells (human) (P36888 27-993): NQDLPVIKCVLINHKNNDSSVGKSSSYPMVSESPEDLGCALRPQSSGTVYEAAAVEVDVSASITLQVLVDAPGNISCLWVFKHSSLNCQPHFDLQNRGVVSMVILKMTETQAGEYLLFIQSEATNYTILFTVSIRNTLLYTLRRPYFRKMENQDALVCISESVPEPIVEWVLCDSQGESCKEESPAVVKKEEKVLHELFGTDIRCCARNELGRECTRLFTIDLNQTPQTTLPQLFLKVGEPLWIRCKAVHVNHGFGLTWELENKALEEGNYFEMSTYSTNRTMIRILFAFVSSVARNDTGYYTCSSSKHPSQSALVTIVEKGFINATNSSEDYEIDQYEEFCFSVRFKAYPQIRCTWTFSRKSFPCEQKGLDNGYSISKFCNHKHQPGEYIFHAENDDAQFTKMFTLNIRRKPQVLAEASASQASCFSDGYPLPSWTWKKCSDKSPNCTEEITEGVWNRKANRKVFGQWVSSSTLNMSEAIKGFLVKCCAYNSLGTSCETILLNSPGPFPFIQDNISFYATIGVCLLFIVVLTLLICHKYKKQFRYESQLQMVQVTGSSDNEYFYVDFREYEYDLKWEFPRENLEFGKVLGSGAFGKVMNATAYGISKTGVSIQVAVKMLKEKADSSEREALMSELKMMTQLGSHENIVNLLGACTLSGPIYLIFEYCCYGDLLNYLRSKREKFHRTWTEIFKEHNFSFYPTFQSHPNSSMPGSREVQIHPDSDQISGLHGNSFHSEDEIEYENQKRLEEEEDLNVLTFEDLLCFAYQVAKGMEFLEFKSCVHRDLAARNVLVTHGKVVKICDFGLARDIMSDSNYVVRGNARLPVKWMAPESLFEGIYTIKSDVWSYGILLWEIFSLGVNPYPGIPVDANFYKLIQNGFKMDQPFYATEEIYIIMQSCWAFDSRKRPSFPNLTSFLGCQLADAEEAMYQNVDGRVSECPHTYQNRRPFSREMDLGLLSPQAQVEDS

In assay [1], FL monomer Fc fusion polypeptide had an apoptosis of starved OCI-AML5 cells, Annexin V flow cytometry of 53.8%; a live cells, starved OCI-AML5, Annexin V flow cytometry of 45.8%; a percent of OCI-AML5 cells positive for Erk1/2 phosphorylation of 75%.
In the case of “FLT3L-romiplostim fusion polypeptide without a His-Tag (Fc fusion)”, the percentage of bound cells in assay [2] is > 30 percent and 40 percent; in assay [3], > 40 percent and 50 percent.
For Nplate (Romiplostim) (Fc fusion), in assay [2], the percentage of bound cells was more than 30 percent. In assay [4], this substance displayed an EC50 of M-07e cell proliferation, XTT assay of 12.1 nM; a percent of M-07e cells positive for Akt phosphorylation of 20%; a percent of M-07e cells positive for Erk1/2 phosphorylation at 6.67 nM of 60%; a percent of M-07e cells positive for Erk1/2 phosphorylation at 13.33 nM of 60%. This substance displayed a percent of M-07e cells positive for Erk1/2 phosphorylation, 25 ng/ml to 800 ng/ml romiplostim in assay [4] of 60%. In assay [3], this substance showed a percentage of bound cells of more than 40 percent.
In assay [4], thrombopoietin mimetic (TPOm) peptide showed a percent of M-07e cells positive for Akt phosphorylation of less than 5%, a percent of M-07e cells positive for Erk1/2 phosphorylation at 25 ng/ml TPOm of less than 5% and a percent of M-07e cells positive for Erk1/2 phosphorylation at 800 ng/ml TPOm of 20%.
